Measured values taken from paper PMC12285722, “M6A-dependent RNA condensation underlies FUS autoregulation and can be harnessed for ALS therapy development”.

Molecular target: FUS (recombinant, His-tagged) (human, UniProt P35637 1-526)
Assay: EMSA; 250 nM RNA, 0-7.5 uM FUS (Methods: 7.0); EMSA: 50 mM Tris-HCl pH 7.5, 100 mM KCl, 2 mM MgCl2, 100 mM beta-mercaptoethanol, 0.1 mg/ml BSA, 30 min RT, 6% native gel in TBE; CONA: lysate in 1% Triton X-100/PBS, beads washed in 20 mM Hepes pH 7.5, 0.3 M NaCl, 0.01% Triton X-100, 5 mM MgCl2, 2 h RT
Settings: protein: recombinant; tags: His; label: 5' Cy5; 3' biotin-TEG

Sequence of FUS (recombinant, His-tagged) (P35637 whole entry): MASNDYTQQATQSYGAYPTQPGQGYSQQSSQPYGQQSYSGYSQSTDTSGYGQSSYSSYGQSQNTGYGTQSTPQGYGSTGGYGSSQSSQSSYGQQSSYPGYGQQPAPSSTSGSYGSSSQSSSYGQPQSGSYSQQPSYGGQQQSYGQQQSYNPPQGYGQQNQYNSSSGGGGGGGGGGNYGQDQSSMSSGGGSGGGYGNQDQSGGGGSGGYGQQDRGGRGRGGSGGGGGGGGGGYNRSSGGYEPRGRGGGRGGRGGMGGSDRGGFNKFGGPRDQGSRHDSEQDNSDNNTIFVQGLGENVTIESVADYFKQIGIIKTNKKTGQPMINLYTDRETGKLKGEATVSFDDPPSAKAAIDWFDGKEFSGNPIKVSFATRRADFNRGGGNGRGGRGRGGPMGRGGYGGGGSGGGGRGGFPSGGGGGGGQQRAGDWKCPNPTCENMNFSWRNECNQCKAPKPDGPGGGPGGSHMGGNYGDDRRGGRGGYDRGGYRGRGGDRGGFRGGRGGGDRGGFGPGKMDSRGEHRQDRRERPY

B1: 4xDRACH (ssRNA)
RNA: GGACUCGGACUUGGACUCUGGACUUUG
B1: binds.
